Assays:
YFP-FoxO3 H-C = assay: co-IP; YFP-FoxO3 constructs transfected into HeLa cells, purified using YFP resin, PP2A-B56 binding determined by Western blotting
YFP-FoxO3 L-C = assay: as above
YFP-FoxO3 I-C = assay: as above
Recombinant B56α = Recombinant B56α (UniProt Q15172); assay: ITC; purified full-length recombinant B56α and synthetic ADAM17 peptides

PP2A-B56 (endogenous holoenzyme of HeLa cells), sequence (Q15172 whole entry): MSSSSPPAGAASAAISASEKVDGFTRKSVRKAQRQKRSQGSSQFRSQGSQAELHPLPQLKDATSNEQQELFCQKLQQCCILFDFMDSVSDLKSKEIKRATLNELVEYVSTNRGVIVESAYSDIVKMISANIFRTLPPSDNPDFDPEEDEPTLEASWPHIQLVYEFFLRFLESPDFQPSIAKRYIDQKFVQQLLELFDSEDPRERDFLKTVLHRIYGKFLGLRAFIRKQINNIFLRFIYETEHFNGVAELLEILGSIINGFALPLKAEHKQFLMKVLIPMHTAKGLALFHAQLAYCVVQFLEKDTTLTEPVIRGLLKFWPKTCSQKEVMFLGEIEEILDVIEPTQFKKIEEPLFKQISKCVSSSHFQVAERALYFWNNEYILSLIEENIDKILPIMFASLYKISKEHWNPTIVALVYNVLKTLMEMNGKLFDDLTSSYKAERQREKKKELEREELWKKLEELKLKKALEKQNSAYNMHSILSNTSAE
PP2A-B56 (endogenous holoenzyme of HeLa cells), sequence (P30153 whole entry): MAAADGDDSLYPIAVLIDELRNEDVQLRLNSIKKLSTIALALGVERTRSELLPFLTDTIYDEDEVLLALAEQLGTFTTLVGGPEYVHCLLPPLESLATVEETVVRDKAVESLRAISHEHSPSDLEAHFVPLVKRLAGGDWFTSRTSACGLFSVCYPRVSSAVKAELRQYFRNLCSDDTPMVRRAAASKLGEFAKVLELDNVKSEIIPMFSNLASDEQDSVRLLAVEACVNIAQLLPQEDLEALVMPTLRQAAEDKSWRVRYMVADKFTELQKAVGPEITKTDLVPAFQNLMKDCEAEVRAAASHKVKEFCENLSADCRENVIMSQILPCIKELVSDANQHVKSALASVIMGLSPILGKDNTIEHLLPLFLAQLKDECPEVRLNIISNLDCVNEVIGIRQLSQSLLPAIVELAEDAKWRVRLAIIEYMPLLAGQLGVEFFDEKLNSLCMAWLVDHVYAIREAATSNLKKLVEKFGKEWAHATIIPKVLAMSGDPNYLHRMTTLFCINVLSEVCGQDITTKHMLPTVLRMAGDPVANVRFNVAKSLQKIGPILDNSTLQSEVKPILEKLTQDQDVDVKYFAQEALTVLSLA
PP2A-B56 (endogenous holoenzyme of HeLa cells), sequence (P67775 whole entry): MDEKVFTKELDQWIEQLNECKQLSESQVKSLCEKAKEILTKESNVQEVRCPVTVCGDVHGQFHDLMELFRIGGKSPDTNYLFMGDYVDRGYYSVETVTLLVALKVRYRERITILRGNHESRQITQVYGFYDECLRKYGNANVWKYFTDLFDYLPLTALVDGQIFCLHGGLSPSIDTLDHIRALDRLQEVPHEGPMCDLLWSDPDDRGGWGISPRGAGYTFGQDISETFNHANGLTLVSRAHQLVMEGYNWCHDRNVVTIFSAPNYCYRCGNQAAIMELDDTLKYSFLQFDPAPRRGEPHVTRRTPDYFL

Row | fold PP2A-B56 bound against wt FoxO3 (YFP-FoxO3 H-C) [fold] | fold PP2A-B56 bound against wt FoxO3 (YFP-FoxO3 L-C) [fold] | fold PP2A-B56 bound against wt FoxO3 (YFP-FoxO3 I-C) [fold] | Kd (Recombinant B56α) [nM] | Substance
1 | 10 | 0.5 | 4 | – | PP2A-B56 (endogenous holoenzyme of HeLa cells) (from UniProt Q15172 1-486; P30153 1-589; P67775 1-309) (complex)
2 | – | – | – | 900 | synthetic ADAM17 peptide engineered for optimal binding (LDTIQEEE)
